# Source: patent US20220356230A1
# Target: VSV G protein on VSV delta G pseudotyped virus-like particles (Vesicular stomatitis virus) (UniProt P03522)
row,Substance,VSV-VLP Binding Signal (RLU)
1,mAb10987 (antibody),1840
2,mAb10933 (antibody),507
3,mAb10934 (antibody),3880
4,mAb10936 (antibody),2320
